Reference: IntAct's records for PubMed 18946488

B1: Rho-related GTP-binding protein RhoE (Mus musculus), P61588 (parent)
chain: MKERRASQKLSSKSIMDPNQNVKCKIVVVGDSQCGKTALLHVFAKDCFPENYVPTVFENYTASFEIDTQRIELSLWDTSGSPYYDNVRPLSYPDSDAVLICFDISRPETLDSVLKKWKGEIQEFCPNTKMLLVGCKSDLRTDVSTLVELSNHRQTPVSYDQGANMAKQIGAATYIECSALQSENSVRDIFHVATLACVNKTNKNVKRNKSQRATKRISHMPSRPELSAVATDLRKDKAKSCTVM

Variants of: B1
Details: with rock1_mouse Rock1, P70335
Sequence of rock1_mouse Rock1, P70335 (P70335 whole entry): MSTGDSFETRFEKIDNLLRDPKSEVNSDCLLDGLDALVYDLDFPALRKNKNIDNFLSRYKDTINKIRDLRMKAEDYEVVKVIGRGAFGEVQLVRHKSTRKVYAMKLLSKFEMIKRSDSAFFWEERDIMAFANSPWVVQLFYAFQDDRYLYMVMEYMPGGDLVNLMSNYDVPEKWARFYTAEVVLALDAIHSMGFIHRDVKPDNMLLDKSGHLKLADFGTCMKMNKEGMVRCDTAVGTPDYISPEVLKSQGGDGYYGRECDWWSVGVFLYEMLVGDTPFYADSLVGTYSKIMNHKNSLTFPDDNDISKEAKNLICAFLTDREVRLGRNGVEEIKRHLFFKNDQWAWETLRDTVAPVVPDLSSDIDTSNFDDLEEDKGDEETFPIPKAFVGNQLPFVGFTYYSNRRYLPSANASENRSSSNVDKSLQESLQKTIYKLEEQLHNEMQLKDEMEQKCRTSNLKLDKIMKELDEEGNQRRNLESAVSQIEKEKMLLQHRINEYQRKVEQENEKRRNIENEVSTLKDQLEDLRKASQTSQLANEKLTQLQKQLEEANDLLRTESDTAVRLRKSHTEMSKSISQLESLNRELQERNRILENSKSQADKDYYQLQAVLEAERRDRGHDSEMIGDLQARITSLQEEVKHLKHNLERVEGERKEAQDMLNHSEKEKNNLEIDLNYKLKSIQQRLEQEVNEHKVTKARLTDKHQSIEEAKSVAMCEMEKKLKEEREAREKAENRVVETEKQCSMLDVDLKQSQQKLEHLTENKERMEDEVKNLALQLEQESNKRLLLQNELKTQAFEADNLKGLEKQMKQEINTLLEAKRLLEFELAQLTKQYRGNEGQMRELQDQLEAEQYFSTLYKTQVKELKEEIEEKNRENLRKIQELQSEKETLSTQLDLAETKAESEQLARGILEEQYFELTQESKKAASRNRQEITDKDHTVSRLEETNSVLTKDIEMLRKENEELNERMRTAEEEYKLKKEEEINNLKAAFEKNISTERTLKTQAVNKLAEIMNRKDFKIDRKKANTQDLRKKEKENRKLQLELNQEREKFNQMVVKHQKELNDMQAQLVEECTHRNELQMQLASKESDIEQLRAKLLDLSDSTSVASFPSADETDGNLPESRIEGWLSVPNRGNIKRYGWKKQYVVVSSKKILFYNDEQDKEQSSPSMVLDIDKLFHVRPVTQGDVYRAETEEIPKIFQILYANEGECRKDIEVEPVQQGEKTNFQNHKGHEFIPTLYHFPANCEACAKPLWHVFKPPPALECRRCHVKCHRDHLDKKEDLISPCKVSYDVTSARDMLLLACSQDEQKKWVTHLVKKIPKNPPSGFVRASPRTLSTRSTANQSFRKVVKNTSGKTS

Variant | effect of a mutation on the interaction
T173R | disrupting interaction

Variants of: B1
Details: with rock1_mouse Rock1, P70335
Remark: another data set of the same source

Variant | effect of a mutation on the interaction
V192R | disrupting interaction
